Measurements taken from publication PMC7145715.

Target: KDM4B (1-350) (UniProt O94953 1-350)
Test: EMSA

Chain of KDM4B (1-350) (O94953 1-350): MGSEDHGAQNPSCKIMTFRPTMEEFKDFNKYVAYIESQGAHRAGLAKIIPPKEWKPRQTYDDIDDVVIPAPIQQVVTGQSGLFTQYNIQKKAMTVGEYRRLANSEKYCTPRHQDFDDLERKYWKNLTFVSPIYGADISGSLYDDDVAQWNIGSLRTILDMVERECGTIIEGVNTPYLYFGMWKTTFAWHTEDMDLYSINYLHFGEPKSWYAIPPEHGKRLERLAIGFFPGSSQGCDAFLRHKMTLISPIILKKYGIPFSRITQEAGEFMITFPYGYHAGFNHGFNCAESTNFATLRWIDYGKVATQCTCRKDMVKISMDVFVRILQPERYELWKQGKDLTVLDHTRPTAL

CUCAUCUCCAGUCUGAGUAAUAAUGCUUAUAGUAUUAUGG (ssRNA) [WT-4BRBS (AR-A2)]: binds.
